Test: yeast display, Sf9 membrane polyspecificity reagent, FACS + sequencing; frameworks hold sequencing errors
Method in brief: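 A synthetic nanobody library was expressed on Saccharomyces cerevisiae BJ5465 by galactose induction for 36–48 hours. The library was stained for 1 hour at 4 °C with 10% biotinylated, detergent-solubilized Sf9 membrane reagent and enriched with streptavidin microbeads before FACS. Low and high (top ~1%) gates were set on anti-HA fluorescence for expression and streptavidin fluorescence for reagent binding, and each polyreactivity label reflects the gate of origin.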

| Sequence | polyreactivity (PSR sort gate) |
| --- | --- |
| QVQLVESGGGLVQAGGSLRLSCAASGFIFRRNAMGWYRQAPGKERELVAAISAGGTSTYYADSVKGRFTISRDNAKNTVYLQMNSLKPEDTAVYYCNKAYYYDAEYDYWGQGTQVTVSS | high polyreactivity |
| QVQLVESGAGLVQAGGSLRLSCAASGRIVYYVMGWYRQAPAKEMELVAAISTRGGSTYYADSVKGRFTISRDNAKNTVYLQINSLKPEDTAVYYCAASSLLTRFNSWGQGTQVTVSS | high polyreactivity |
| QVQLVESGGGLVQAGGSLRLSCAASARIFKTYAMGWYIQAPGKERELVATITWSGGSTYADSVKGRFTITRDNAKNTVYLQMNSLKPEDTAVYYCAAGRTYYSPGYRSYSGYDYWGQGTQVTLSS | high polyreactivity |
| QVQLVESGGGLVHAGGSLRLSCAASGRIFIANTMGWYRQATGKERELVAAITQRGDSTYYADSVKGRCTISRDNAKNTVDLQMNSLKPEDTAVYYCAARYYLSSYVRYNYWGQGTQVTVSS | high polyreactivity |
| QVQLVESGGGLVQAGGSLRLSCAASGRIFGVNAMGWYRQAPWKERELVAAINYSGGRTSYADSVKGRFTISRDNAKNTVYLQMNSLKPEDTAVYYCNAGGRRRIFAHSSTGDYWGQGTQVTVSS | high polyreactivity |
| QVQLVESGGGLVQAGGSLRLSCAASGRTFWAYAMGWYRPAPGKERELVSAITTSGGSTNYADSVKGRFTISRDNAKNTVYLHMIRLKPEDTAVYYCNADPTYHVVNGVGYWGQGTQVTVSS | low polyreactivity |
| QVQLVESGGGLVQAGGSLRLSCAASGRIFRYYAMGWYRQAPGKERELVAAIRYRSGGTYYADSVKGRFTISRDNAKNTVYLQMNCLKPEDTAVYYCNADKRLRGHGYDYWGQGTQVTVSS | high polyreactivity |
| QVQLVESGGGLVQAGGSLRLSCAASGSIFKYYAMGWYRQAPGKERELVAAITSSGARTYYADSVKGRFTISRDNAKNTVYLQMNSLKPEDTAVYYCRGYVRDQSKYDYWGQGTQVTVSS | high polyreactivity |
| QVQLVESGGGLVQAGGSLRLSCAASGRIFWYYTMGWYRQAPGKERELVAAISNGGSTYYADSVKGRFTISRDNAKNTVYLQMNSLKPEDTAVYYCAAVGARGGYFRMDYWGQGTQVTVSS | high polyreactivity |
| QVQLVESGGGLVQAGGSLRLSCAASGSIFVGYAMGWYRQAPGKEREMVAAITGSGTRTYYADSVKGRFTISRDNAKNTVYLQMNSLKPEDTAVYYCAAPLSYKNVKYDYWGQGTQVTVSS | low polyreactivity |
| QVQLVESGGGLVQAGGSLRLSCAASGRIFGGNAMGWYRKAPGTEREVVAAISWIGGTTYYADSVKGRFTISRDNAKNTVYLQMISLKPEDTAVYYCAAYRYRPHDHRYYRYDYWGQGTQVTVSS | high polyreactivity |
| QVQLVESGGGLVQAGGSLRLSCAASGLIFIAYSMGWYRQAPGKEREFVAAITWNGVSTYYADSVKGRFTISRDNAKNTVYLQMNSLKPEDTAVYDCNADYDFSPWAYEYWGQGTQVTVSS | high polyreactivity |
| QVQLEDSGGGLVQAGGTLRLRCAASGITFGTNDMGWYRKAPGKETELVAAIDGSGETYYADSVKGRFTISRDNAKNTVYLLMNSLKPVDTAVYYCAADVIYWFSGEYDYWGQGTQVIVSS | low polyreactivity |
| QVQLVESGGGLVQAGGSLRLSCAASGRTFGGNAMGWNRHAPGKERELVAGINISGGSTNYADSVKGRYTISRDNAKNTVYLQMNSLKPEDSAVYYCNADTAVYAWDDDYWGQGTQVTVSS | low polyreactivity |
| QVQLVESGGGLVQAGGSLRLSCAASGSTIFSYAMGWYRQAPGKERELVAAITYRSSRTYYADSVKGRFTISRDNAKNTVYLQMNSLKPEDTAVYYCAAGYFSYRRYDYWGQGTQVTVSS | high polyreactivity |
| QVQLVESGGGLVQAGGSLRLSCAASGRIFRRYAMGWYRQAPGTETELVAAISSGASTYYADSVKGRFTISRDNAKNTVYLQMNSLKPEDTAVYYCAVDRPYYYGYRMDYWGQGTQVTVSS | low polyreactivity |
| QVQLGESGGGLVQAGGSLRLSCAASGFTFYRYTLGWYRQEPGKERELVAAITWSGGNTYYADSVKGRFTISRDNAKNTVYLQMNSLKPEDTAFYYCAAYKPYSKYNYWGQGTQVTVSS | high polyreactivity |
| KVQLVESGGGLVQAGGSLRLSCAASGYIFSYYAMGWYRQAPGKERELVAAITASGGRTYYADSVKGRFTISRDNAKNTVYLQMNSQKPEDTAVYYCARASGIILQGQLVRWYRYNYLGQGTQVTVSS | high polyreactivity |
| QVQLVESGGGLDQAGGSHRLSCAASGRIFTYNAIGWYRQAPGKERELVAAISRRGGTTYYADSVKGRFTISRDNAKNTVYLQMNSLKPEDTAVYYCAAVVFTRGVTSRTVSRYDYWGQGTLVTVSS | high polyreactivity |
| QVQLVQSGAGLVQAGGSLRLSCAPSGFIFRRYDMAWYRQAPGKERELVAAITSSGGTTYYADSVKGRFTNSRDNAKNTVYLQMNSLKPEDTAVYYCNAVRGVYARRSDYWGQGTQVTVSS | high polyreactivity |
| QVQLVESGGGLVQAGGSLRLSCAASGFSFSYYAMGWYRQAPGKERELVAAINYSGTSTYYADSVKGRFTISRDNAKNTVYLQMKSLKPEDTAVYYCAADLPYYPYLYDYWGQGTQVTVSS | low polyreactivity |
| QVQLVESGGGLVQAGGSLRLSSAPSGRTFLSNAMGWYRQAPGKERELVAAITWETDSTYYADSVKGLFTISRDNAKNTVYLQMNSLKPEDTAVYYCAARRYRPFTDYDGRTWWTRDYWGQGTQVTVSS | low polyreactivity |

| Sequence | polyreactivity (PSR sort gate) |
| --- | --- |
| QVQLKESGVGLVQAGGSLRLSCAASGTIYWLWSMGWYCQAPGKERELVASISSGGTTYHADSVKGRFTISRDNAKNTVYLQMNSLNPEDTAVYYSAAFYVATAKLGYWGQGSQVTVSS | low polyreactivity |
| QVQLVESGGGLVQAGGSLRLSCAASGSTFNYNAMGWYRPAPRKERELVAAITWNSGSTYYADSVKGRFTISRDNAKNTVYLQMNSLKQEDTAVYSCAADFTIPYWDAKFDYWGQGTQVTVSS | low polyreactivity |
| QVQLVESGGGLVQAGCSLRLSCAASGFTYARYTMGWYRQAPGKERELVAAISSRGSSTYYADSVKGRFTISRDNAKNSVYLQMNCLKPEDTAVYYCAAPPRYGYDYWGQGTQVTVSS | high polyreactivity |
| QVQLLESGGGLVQAGGSLRLSCAASGSTFYFNAMGWYSQAPGKDSELVAGIRYSGSSTYYADSVKGRFTISRDNAKNTVYLQMHSLKPEDTAVYYCAASLWRWRFSRFGYWGQGTQVTVSS | high polyreactivity |
| QVQLVESGGGLVQAGGSLRLSCAASGFIYSKYAMRWYRQAPGKERELVAAITFSGGSTYYADSVKGRFTISRDNAKKTVYLQMNSLKPEDTAVYYCNAEGSYPDVSPVLGYDYWGQGTQVTVSS | low polyreactivity |
| QVQLVESGGGLVQAGCSLRLRCAASGYTFYDYAMGWYRPAPGKERELVAASSSSGGSTYYADSVKGRFTISRDNAKNTGYLQMNSVKPEDTALYYCAVRARRWRYNYWGQGTQVTVSS | high polyreactivity |
| QVQLVESGGGLVQAGGSLRLSCAASGITFYFYAMGCERQAPGKERELVAAINRSGSSTYYADSVKGRFTISRDNAKTSVYLQMNSLNPEDTAVYYFAAGWYPWAYEDWGQGTQVTVTS | high polyreactivity |
| QVQLVESGGGLVQAGGSLRLSCAASGRSFTPYARGWYRQAPGKERELVAAISTIGGTTYADSVKGRFTISRDNAKNTVYLQRNSLKPEDTAVYYCAAERPPYPGNGRDYWGQGTQVTVSS | high polyreactivity |
| QVQLIESGGGLVQAGGSLRLSCAASGSIFAANAMGWYRQAPGKEREFVASISYTGASTYADSVKGRFTISRDNAKNTVYFQMNSLKPEDTAVYYCAKDGYWTGLDPYYYWGQGTQVTVSS | low polyreactivity |
| QVQLVESGGGLVQAGGSLRLICDDSGSILSYNTMGWYRQAPGKEREFVAGITYSGSRTYYADSVKGRFTISRDNAKNTVSLQMNSLKPVDTAVYYCAKRNYYRMYWGQGTQVTVSS | high polyreactivity |
| QVHLVESGGGLVQEGGSLRLSCAASGFTFDSYAMGWYRQAPGKERELVASISSSGSTNYADSVKGRFTISRDNAKNTVYLQMNSLKPEDTGVYYCAAESRYPFIYEYWGQGTQVTVSS | low polyreactivity |
| QVQLVESGGGLVQAGGSLRLSCAASGRIFTRNAMGWYRQAPGKERELVAAITSGGSTNYADSVKGRFTISRDNAKNTVYLQMNSLKPEDTAVYYCNAVYYPYRIWGRVRPSYGYWGQGTQVTVSS | high polyreactivity |
| QVQLVESGGGLVQAGGSLRLSCAASGFTFGGYAMGWYRQAPGKERGLVAAISGSGGRTYYADSVKGRFTISRDNAKNTVYLQMNSLKPEDTAVYYCAAETVTRSFYSEYDYWGQGTQVTVSS | low polyreactivity |
| QVQLVESGGGLVQAGGSLRLSCAASGFIFGYYVMGLYTQAPGKERELVAAITTSGGSTYYADSVKGRFTISRDNAKNTVYLQMNSLKPEDTAVYYCAADGSPSLLDYWGQVTQVTVSS | high polyreactivity |
| QVQLVESGVGLVQAVGSLRLSSPTSGIIFRYYSMVWYRHAPGKESEYVAVITRRGGGTYYAYSVKGRFTISRDNAKNTVYFEMNSLKPEDTAVYYCAKDFTGHYPKGFDYWGQGTQVTVSS | low polyreactivity |
| QVQLVESGGGLVQAGGSLRLSCAASGYSFYYNAMGWYRQAPGKERELVAAISYTGGSTYYADSVKGRFTISRDNAKNTVYLQMNSLKPEDTAVYYCAAEYYTYVSDNYQHYGYWGQGTQVTVSS | low polyreactivity |
| QVQLVESGGGLVQAGGSLRLSCAASGSTFALYAMGWYRQAPGKERELVAVITSGGSTYYADSVKGRFTISRDNAKNTVYLQMNSLKPEDTAVYYCAARRHVRKGPLGYWGQGTQVTVSS | high polyreactivity |
| QVQLVESGGGLVQAGGSLRLSCAASGSTLVYNDMGWYRQAPGKERELGATITGTDSTYYADSVKGRFTISRDNAKNTVYLQMNSLKPEDTADCAADRAASRPDYDYWGQGTQVTVSS | low polyreactivity |
| QVQLVESGGGLVQAGGSLRLSCAASGTTFYKYSMGWYRQAPGKERELVAAITSRGDRTYYADSVKGRFTISRDNANNTVYLQMNSLKPEDTAVYYCAATRWRDAGHSYDYWGQGTQVTVSS | high polyreactivity |
| QVQLVESGGGLVQAGGSLRLSCAASGRIFLYYTMGWYRQATWKERELVAAITRSGGSTYYADSVKGRFTISRDNAKNTVYLQMNSLKPEDTAVYYCNRAYVRYVPMNYWGQGTQVTVSS | high polyreactivity |
| QVQLVESGGGLVQAGGSLRLSSAASGSIFSRYAMGWYRQAPGIERELVAAITWSGGSTYYADSVKGRFTISRDNAKNTVYLQMNSLKPEDTAVYYCAAFGYAPYNHRYDYWGQGTQVTVSS | low polyreactivity |
